T1: SNTA1, Q13424
T1 sequence (Q13424 82-180, limits assumed, looked up): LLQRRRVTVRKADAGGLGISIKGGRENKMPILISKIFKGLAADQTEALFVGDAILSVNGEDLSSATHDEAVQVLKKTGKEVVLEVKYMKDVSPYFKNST

T2: DLG3_2, Q92796
T2 sequence (Q92796 221-321, limits assumed, looked up): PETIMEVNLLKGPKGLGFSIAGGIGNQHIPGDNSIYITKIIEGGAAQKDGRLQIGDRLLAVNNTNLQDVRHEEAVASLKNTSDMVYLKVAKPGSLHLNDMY

T3: ARHGEF11, O15085
T3 sequence (O15085 42-136, limits assumed, looked up): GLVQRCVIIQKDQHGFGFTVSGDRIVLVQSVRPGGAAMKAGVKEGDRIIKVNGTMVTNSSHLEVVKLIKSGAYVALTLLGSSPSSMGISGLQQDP

T4: HTRA3, P83110
T4 sequence (P83110 354-453, limits assumed, looked up): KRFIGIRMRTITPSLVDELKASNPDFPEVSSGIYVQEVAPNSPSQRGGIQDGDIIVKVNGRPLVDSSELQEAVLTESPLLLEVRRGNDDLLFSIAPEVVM

T5: APBA1_1, Q02410
T5 sequence (Q02410 651-752, limits assumed, looked up): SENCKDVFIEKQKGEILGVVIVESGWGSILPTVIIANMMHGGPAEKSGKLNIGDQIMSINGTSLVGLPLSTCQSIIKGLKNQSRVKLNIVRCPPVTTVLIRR

T6: FRMPD1, Q5SYB0
T6 sequence (Q5SYB0 52-145, limits assumed, looked up): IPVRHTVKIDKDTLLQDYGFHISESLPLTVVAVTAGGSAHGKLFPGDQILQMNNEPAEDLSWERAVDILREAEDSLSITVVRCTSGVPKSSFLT

T7: RHPN1, Q8TCX5
T7 sequence (Q8TCX5 508-602, limits assumed, looked up): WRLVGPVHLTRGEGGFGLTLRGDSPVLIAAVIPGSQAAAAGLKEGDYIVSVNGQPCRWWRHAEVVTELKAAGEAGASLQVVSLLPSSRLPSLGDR

T8: LIN7B, Q9HAP6
T8 sequence (Q9HAP6 88-185, limits assumed, looked up): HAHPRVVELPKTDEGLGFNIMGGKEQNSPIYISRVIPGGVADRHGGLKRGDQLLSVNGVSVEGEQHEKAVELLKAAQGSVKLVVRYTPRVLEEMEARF

T9: NHERF3_3, Q5T2W1
T9 sequence (Q5T2W1 238-333, limits assumed, looked up): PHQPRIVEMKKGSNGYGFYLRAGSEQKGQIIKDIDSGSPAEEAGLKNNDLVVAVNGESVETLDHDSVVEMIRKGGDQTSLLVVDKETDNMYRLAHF


Experiments:
Test in all cases: holdup assay
Parameters in all cases: key: below the threshold = too weak to quantify, mostly under pKd 3.1 to 4
Conditions in all cases: plain residues with an end cap or a label only (N-terminal biotin on a linker: ado-ado)
FRMPD2_3, Q68DX3 = molecular target: FRMPD2_3, Q68DX3
SNTA1, Q13424 = molecular target: T1, SNTA1, Q13424
NHERF4_4, Q86UT5 = molecular target: NHERF4_4, Q86UT5
LNX1_3, Q8TBB1 = molecular target: LNX1_3, Q8TBB1
DLG3_2, Q92796 = molecular target: T2, DLG3_2, Q92796
GIPC2, Q8TF65 = molecular target: GIPC2, Q8TF65
MAGI3_2, Q5TCQ9 = molecular target: MAGI3_2, Q5TCQ9
PARD3_3, Q8TEW0 = molecular target: PARD3_3, Q8TEW0
ARHGEF11, O15085 = molecular target: T3, ARHGEF11, O15085
LNX1_2, Q8TBB1 = molecular target: LNX1_2, Q8TBB1
MAST2, Q6P0Q8 = molecular target: MAST2, Q6P0Q8
Inadl_8, Q8NI35 = molecular target: Inadl_8, Q8NI35
Inadl_10, Q8NI35 = molecular target: Inadl_10, Q8NI35
MAGI1_2, Q96QZ7 = molecular target: MAGI1_2, Q96QZ7
Inadl_4, Q8NI35 = molecular target: Inadl_4, Q8NI35
GOPC, Q9HD26 = molecular target: GOPC, Q9HD26
HTRA3, P83110 = molecular target: T4, HTRA3, P83110
APBA1_1, Q02410 = molecular target: T5, APBA1_1, Q02410
Inadl_1, Q8NI35 = molecular target: Inadl_1, Q8NI35
DLG4_2, P78352 = molecular target: DLG4_2, P78352
FRMPD2_1, Q68DX3 = molecular target: FRMPD2_1, Q68DX3
Inadl_6, Q8NI35 = molecular target: Inadl_6, Q8NI35
FRMPD1, Q5SYB0 = molecular target: T6, FRMPD1, Q5SYB0
MAGI2_3, Q86UL8 = molecular target: MAGI2_3, Q86UL8
RHPN1, Q8TCX5 = molecular target: T7, RHPN1, Q8TCX5
LIN7B, Q9HAP6 = molecular target: T8, LIN7B, Q9HAP6
NHERF3_3, Q5T2W1 = molecular target: T9, NHERF3_3, Q5T2W1
GORASP1, Q9BQQ3 = molecular target: GORASP1, Q9BQQ3
Chain of GORASP1, Q9BQQ3 (Q9BQQ3 1-208): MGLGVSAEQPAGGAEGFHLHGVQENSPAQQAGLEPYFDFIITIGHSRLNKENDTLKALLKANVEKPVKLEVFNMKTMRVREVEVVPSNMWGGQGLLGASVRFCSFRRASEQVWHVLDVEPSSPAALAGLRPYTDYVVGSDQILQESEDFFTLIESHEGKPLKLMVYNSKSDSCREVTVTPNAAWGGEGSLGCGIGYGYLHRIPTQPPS

Chain of GIPC2, Q8TF65 (Q8TF65 112-203): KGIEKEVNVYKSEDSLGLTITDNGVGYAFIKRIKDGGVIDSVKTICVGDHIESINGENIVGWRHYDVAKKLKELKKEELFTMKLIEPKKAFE
Chain of MAGI3_2, Q5TCQ9 (Q5TCQ9 398-503): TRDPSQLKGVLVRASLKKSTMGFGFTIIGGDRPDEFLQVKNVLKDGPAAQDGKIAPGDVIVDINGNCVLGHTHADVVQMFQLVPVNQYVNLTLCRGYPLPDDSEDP
Chain of Inadl_10, Q8NI35 (Q8NI35 1673-1763): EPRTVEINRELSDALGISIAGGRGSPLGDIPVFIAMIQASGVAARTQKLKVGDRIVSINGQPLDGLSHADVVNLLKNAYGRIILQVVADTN
Chain of FRMPD2_1, Q68DX3 (Q68DX3 770-861): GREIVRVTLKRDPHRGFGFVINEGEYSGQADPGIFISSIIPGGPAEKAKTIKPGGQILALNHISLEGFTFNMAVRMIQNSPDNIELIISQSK
Chain of MAST2, Q6P0Q8 (Q6P0Q8 1099-1202): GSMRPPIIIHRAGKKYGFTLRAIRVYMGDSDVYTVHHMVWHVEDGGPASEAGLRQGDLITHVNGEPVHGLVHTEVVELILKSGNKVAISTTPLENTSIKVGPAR
Chain of LNX1_2, Q8TBB1 (Q8TBB1 371-470): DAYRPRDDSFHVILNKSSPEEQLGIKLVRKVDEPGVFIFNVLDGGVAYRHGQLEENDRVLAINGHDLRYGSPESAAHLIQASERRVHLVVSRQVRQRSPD
Chain of Inadl_1, Q8NI35 (Q8NI35 113-229): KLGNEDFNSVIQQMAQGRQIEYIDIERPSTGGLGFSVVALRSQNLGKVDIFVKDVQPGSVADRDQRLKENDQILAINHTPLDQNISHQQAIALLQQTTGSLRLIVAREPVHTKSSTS
Chain of Inadl_8, Q8NI35 (Q8NI35 1425-1530): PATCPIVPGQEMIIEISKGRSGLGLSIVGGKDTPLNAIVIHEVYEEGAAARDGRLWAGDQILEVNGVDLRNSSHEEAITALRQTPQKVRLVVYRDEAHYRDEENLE
Chain of DLG4_2, P78352 (P78352 155-259): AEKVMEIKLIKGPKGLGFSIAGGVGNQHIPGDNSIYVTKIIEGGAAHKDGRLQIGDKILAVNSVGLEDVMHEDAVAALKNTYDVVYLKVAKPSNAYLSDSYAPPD
Chain of MAGI1_2, Q96QZ7 (Q96QZ7 456-580): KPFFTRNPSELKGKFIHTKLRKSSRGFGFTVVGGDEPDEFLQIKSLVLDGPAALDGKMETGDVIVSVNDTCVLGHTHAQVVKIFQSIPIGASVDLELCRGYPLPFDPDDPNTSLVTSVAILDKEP
Chain of Inadl_4, Q8NI35 (Q8NI35 547-651): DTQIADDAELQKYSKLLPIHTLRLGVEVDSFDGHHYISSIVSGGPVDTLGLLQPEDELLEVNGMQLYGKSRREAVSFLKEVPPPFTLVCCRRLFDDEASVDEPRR
Chain of LNX1_3, Q8TBB1 (Q8TBB1 500-596): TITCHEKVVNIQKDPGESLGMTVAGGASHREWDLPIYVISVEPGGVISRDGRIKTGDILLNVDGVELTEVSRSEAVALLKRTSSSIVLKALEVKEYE
Chain of MAGI2_3, Q86UL8 (Q86UL8 600-682): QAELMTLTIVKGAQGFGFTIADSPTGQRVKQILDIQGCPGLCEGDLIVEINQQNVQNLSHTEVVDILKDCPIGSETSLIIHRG
Chain of PARD3_3, Q8TEW0 (Q8TEW0 582-685): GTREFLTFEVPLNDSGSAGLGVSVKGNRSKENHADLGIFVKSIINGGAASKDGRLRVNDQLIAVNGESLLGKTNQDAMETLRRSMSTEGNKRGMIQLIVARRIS
Chain of Inadl_6, Q8NI35 (Q8NI35 1058-1167): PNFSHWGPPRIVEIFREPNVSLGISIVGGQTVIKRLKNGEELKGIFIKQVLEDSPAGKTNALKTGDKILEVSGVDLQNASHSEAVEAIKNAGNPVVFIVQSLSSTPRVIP
Chain of FRMPD2_3, Q68DX3 (Q68DX3 1073-1166): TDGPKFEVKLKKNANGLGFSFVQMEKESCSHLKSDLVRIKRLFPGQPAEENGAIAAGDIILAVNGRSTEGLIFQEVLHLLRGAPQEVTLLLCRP
Chain of NHERF4_4, Q86UT5 (Q86UT5 464-550): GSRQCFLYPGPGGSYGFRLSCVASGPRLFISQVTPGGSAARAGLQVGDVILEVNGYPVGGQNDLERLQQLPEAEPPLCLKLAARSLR

Row | Binder | pKd (FRMPD2_3, Q68DX3) | pKd (SNTA1, Q13424) | pKd (NHERF4_4, Q86UT5) | pKd (LNX1_3, Q8TBB1) | pKd (DLG3_2, Q92796) | pKd (GIPC2, Q8TF65) | pKd (MAGI3_2, Q5TCQ9) | pKd (PARD3_3, Q8TEW0) | pKd (ARHGEF11, O15085) | pKd (LNX1_2, Q8TBB1) | pKd (MAST2, Q6P0Q8) | pKd (Inadl_8, Q8NI35) | pKd (Inadl_10, Q8NI35) | pKd (MAGI1_2, Q96QZ7) | pKd (Inadl_4, Q8NI35) | pKd (GOPC, Q9HD26) | pKd (HTRA3, P83110) | pKd (APBA1_1, Q02410) | pKd (Inadl_1, Q8NI35) | pKd (DLG4_2, P78352) | other results
1 | LRSPRTPSEV [OR10G3, Q8NGC4] | below the threshold | 3.52 | below the threshold | below the threshold | 3.65 | below the threshold | 4.4 | below the threshold | below the threshold | below the threshold | 3.61 | 4.18 | below the threshold | 3.92 | below the threshold | below the threshold | below the threshold | below the threshold | below the threshold | 3.88 | pKd (FRMPD2_1, Q68DX3): below the threshold; pKd (Inadl_6, Q8NI35): below the threshold; pKd (FRMPD1, Q5SYB0): below the threshold; pKd (MAGI2_3, Q86UL8): 3.55; pKd (RHPN1, Q8TCX5): below the threshold; pKd (LIN7B, Q9HAP6): 3.85; pKd (NHERF3_3, Q5T2W1): 3.54; pKd (GORASP1, Q9BQQ3): below the threshold
2 | RRRESYSTTV [EVI5, O60447] | below the threshold | 4.41 | below the threshold | below the threshold | 5.44 | below the threshold | 5.18 | below the threshold | 4.68 | 3.99 | 5.66 | 4.06 | 3.8 | 4.78 | below the threshold | 4.36 | 3.66 | below the threshold | below the threshold | 5.87 | pKd (FRMPD2_1, Q68DX3): 3.74; pKd (Inadl_6, Q8NI35): below the threshold; pKd (FRMPD1, Q5SYB0): below the threshold; pKd (MAGI2_3, Q86UL8): below the threshold; pKd (RHPN1, Q8TCX5): below the threshold; pKd (LIN7B, Q9HAP6): below the threshold; pKd (NHERF3_3, Q5T2W1): below the threshold; pKd (GORASP1, Q9BQQ3): 4.7

Reference: PMC9482650, “Quantitative fragmentomics allow affinity mapping of interactomes” (Nature Communications, 2022)
